Patent publication US20250197499A1 (STEALTH IO, published 2025)
One block for each binder: values may come before it.

Legend:
[1] = target: T1, Recombinant human PD-L2-His tag (ACROBiosystems, #PD2-H5220) (human, UniProt Q9BQ51 20-219); assay: Octet RED96e; PD-L2-His loaded at 10 µg/ml on HIS1K sensor; sample 117,6 nM
T1 construct: Bought protein; also called sPD-L2; human PD-L2-His tag protein; not shown: His tag
T1 sequence (looked up): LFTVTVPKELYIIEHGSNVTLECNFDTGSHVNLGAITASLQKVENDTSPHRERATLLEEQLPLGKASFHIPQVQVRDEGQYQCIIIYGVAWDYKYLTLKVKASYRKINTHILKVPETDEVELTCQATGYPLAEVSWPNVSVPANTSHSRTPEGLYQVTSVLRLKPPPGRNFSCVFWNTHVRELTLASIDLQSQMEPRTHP
Experimental: (§1) FIG. 4a is a graph of Octet binding studies on sPD-L2. Recombinant human PD-L2-His tag (ACROBiosystems, #PD2-H5220) was loaded to His-sensor (HIS1 K (Anti-Penta-His)) at 10 μg/ml and the binding of each construct was evaluated by Octet RED96e.
(§2) FIG. 4c is a graph depicting the KD values of anti-CD28/sPD-1 constructs on human PD-L2-His tag protein by Octet RED96e. The equilibrium dissociation constant (KD) is calculated as the ratio koff/kₒₙ (with koff:dissociation rates, and kₒₙ:association rates).
(§3) Anti-CD28/sPD-1 antibody fusion constructs were assessed for their ability to bind PD-1 ligands, PD-L1 and PD-L2 by Octet RED96e. Recombinant human PD-L1-His tag (ACROBiosystems, #PD1-H5229) or recombinant human PD-L2-His tag (ACROBiosystems, #PD2-H5220) were loaded to His-sensor (HIS1 K (Anti-Penta-His)) at 10 μg/ml. […] FIG. 3c is a summary of affinity (measured as Kd, M) for each construct on human PD-L1. […] FIG. 4c is a summary of affinity (measured as Kd, M) for each construct on human PD-L2.

[2] = target: T1, Recombinant human PD-L2-His tag …; assay: Octet RED96e; PD-L2-His loaded at 10 µg/ml on HIS1K sensor; sample 588,2 nM
Experimental: as §1, §2, §3

[3] = target: T2, Recombinant human sCD28 Fc-fusion protein (PeproTech, #310-34) (human, UniProt P10747 19-152); assay: Octet RED96e; sCD28 Fc-fusion loaded at 2,5 µg/ml on protA sensor; sample 588,2 nM; control without CD28-binding Fab
T2 construct: Bought protein; also called soluble CD28; not shown: Fc part of the bought fusion; not described
Experimental: (§4) FIG. 5a is a graph of Octet binding studies on sCD28. Recombinant human sCD28 Fc-fusion protein (PeproTech, #310-34) was loaded to protA sensor at 2.5 μg/ml and the binding of each construct was evaluated by Octet RED96e.
(§5) FIG. 5c is a graph depicting the KD values of anti-CD28/sPD-1 constructs on human sCD28 Fc-fusion protein by Octet RED96e. The equilibrium dissociation constant (KD) is calculated as the ratio koff/kₒₙ (with koff:dissociation rates, and kₒₙ:association rates).
(§6) Anti-CD28/sPD-1 antibody fusion constructs were assessed for their ability to bind CD28 by Octet RED96e. Recombinant human sCD28 Fc-fusion protein (PeproTech, #310-34) was loaded to protA sensor at 2.5 μg/ml. […] FIG. 5c is a summary of affinity (measured as Kd, M) for each construct on human CD28.

[4] = target: T3, Recombinant human PD-L1-His tag (ACROBiosystems, #PD1-H5229) (human, UniProt Q9NZQ7 19-238); assay: Octet RED96e; PD-L1-His loaded at 10 µg/ml on HIS1K sensor; sample 588,2 nM
T3 construct: Bought protein; also called sPD-L1; human PD-L1-His tag protein; not shown: His tag
Experimental: (§7) FIG. 3a is a graph of Octet binding studies on sPD-L1. Recombinant human PD-L1-His tag (ACROBiosystems, #PD1-H5229) was loaded to His-sensor (HIS1K (Anti-Penta-His)) at 10 μg/ml and the binding of each construct was evaluated by Octet RED96e.
(§8) FIG. 3c is a graph depicting the KD values of anti-CD28/sPD-1 constructs on human PD-L1-His tag protein by Octet RED96e. The equilibrium dissociation constant (KD) is calculated as the ratio koff/kₒₙ (with koff:dissociation rates, and kₒₙ:association rates).
as §3

[5] = target: T2, Recombinant human sCD28 Fc-fusion …; assay: Octet RED96e; sCD28 Fc-fusion loaded at 2,5 µg/ml on protA sensor; sample 117,6 nM; control without CD28-binding Fab
Experimental: as §4, §5, §6

[6] = target: T3, Recombinant human PD-L1-His tag …; assay: Octet RED96e; PD-L1-His loaded at 10 µg/ml on HIS1K sensor; sample 117,6 nM
Experimental: as §7, §8, §3

[7] = target: T1, Recombinant human PD-L2-His tag …; assay: Octet RED96e, PD-L2-His on HIS1K sensor
Experimental: as §1, §2, §3

[8] = target: T1, Recombinant human PD-L2-His tag …; assay: Octet RED96e; PD-L2-His loaded at 10 µg/ml on HIS1K sensor; sample 277,8 nM
Experimental: as §1, §2, §3

[9] = target: T3, Recombinant human PD-L1-His tag …; assay: Octet RED96e, PD-L1-His on HIS1K sensor
Experimental: as §7, §8, §3

[10] = target: T3, Recombinant human PD-L1-His tag …; assay: Octet RED96e; PD-L1-His loaded at 10 µg/ml on HIS1K sensor; sample 277,8 nM
Experimental: as §7, §8, §3

[11] = target: T1, Recombinant human PD-L2-His tag …; assay: Octet RED96e; PD-L2-His loaded at 10 µg/ml on HIS1K sensor; sample 55,6 nM
Experimental: as §1, §2, §3

[12] = target: T3, Recombinant human PD-L1-His tag …; assay: Octet RED96e; PD-L1-His loaded at 10 µg/ml on HIS1K sensor; sample 55,6 nM
Experimental: as §7, §8, §3

Kd [1]: 1.56 nM | koff [1]: 0.000461 s⁻¹ | kon [1]: 295000 M⁻¹ s⁻¹ | Kd [2]: 0.0118 nM | koff [2]: 5.99e-07 s⁻¹ | kon [2]: 50700 M⁻¹ s⁻¹ | Kd [3]: 17.8 nM | koff [3]: 0.000107 s⁻¹ | kon [3]: 6000 M⁻¹ s⁻¹ | Kd [4]: 0.00629 nM | koff [4]: 6.93e-07 s⁻¹ | kon [4]: 110000 M⁻¹ s⁻¹ | Kd [5]: 2950 nM | koff [5]: 0.00204 s⁻¹ | kon [5]: 692 M⁻¹ s⁻¹ | Kd [6]: 2.24 nM | koff [6]: 0.00132 s⁻¹ | kon [6]: 588000 M⁻¹ s⁻¹
B1: nonvalent (or dummy) Fc/sPD-1 mut (Fc fusion)
chain: DKTHTCPPCPAPEFEGGPSVFLFPPKPKDTLMISRTPEVTCVVVDVSHEDPEVKFNWYVDGVEVHNAKTKPREEQYNSTYRVVSVLTVLHQDWLNGKEYKCKVSNKALPASIEKTISKAKGQPREPQVYTLPPSREEMTKNQVSLTCLVKGFYPSDIAVEWESNGQPENNYKTTPPVLDSDGSFFLYSKLTVDKSRWQQGNVFSCSVMHEALHNHYTQKSLSLSPGGGGSGGGGSGGGGSLDSPDRPWNPPTFSPALLVVTEGDNATFTCSFSNTSESFVLNWYRMSPSNQTDKLAAFPEDRSQPGQDCRFRVTQLPNGRDFHMSVVRARRNDSGTYLCSAISLAPYIQIKESLRAELRVTERRAEVPTAHPSPSPRPAGQFQ
notes: also called Fc/sPD-1 mutated; Fc/sPD-1 mutant construct

Kd [7]: ~10 nM | Kd [8]: 18.1 nM | koff [8]: 0.00314 s⁻¹ | kon [8]: 174000 M⁻¹ s⁻¹ | Kd [9]: ~10 nM | Kd [10]: 37.5 nM | koff [10]: 0.0159 s⁻¹ | kon [10]: 423000 M⁻¹ s⁻¹ | Kd [11]: 7.73 nM | koff [11]: 0.00268 s⁻¹ | kon [11]: 347000 M⁻¹ s⁻¹ | Kd [12]: 21.7 nM | koff [12]: 0.0133 s⁻¹ | kon [12]: 614000 M⁻¹ s⁻¹
B2: bivalent anti-CD28/sPD-1 wt (bispecific antibody, human IgG1, kappa)
light: DIELTQSPASLAVSLGQRATISCRASESVEYYVTSLMQWYQQKPGQPPKLLIFAASNVESGVPARFSGSGSGTNFSLNIHPVDEDDVAMYFCQQSRKVPYTFGGGTKLEIKRTVAAPSVFIFPPSDEQLKSGTASVVCLLNNFYPREAKVQWKVDNALQSGNSQESVTEQDSKDSTYSLSSTLTLSKADYEKHKVYACEVTHQGLSSPVTKSFNRGEC
heavy: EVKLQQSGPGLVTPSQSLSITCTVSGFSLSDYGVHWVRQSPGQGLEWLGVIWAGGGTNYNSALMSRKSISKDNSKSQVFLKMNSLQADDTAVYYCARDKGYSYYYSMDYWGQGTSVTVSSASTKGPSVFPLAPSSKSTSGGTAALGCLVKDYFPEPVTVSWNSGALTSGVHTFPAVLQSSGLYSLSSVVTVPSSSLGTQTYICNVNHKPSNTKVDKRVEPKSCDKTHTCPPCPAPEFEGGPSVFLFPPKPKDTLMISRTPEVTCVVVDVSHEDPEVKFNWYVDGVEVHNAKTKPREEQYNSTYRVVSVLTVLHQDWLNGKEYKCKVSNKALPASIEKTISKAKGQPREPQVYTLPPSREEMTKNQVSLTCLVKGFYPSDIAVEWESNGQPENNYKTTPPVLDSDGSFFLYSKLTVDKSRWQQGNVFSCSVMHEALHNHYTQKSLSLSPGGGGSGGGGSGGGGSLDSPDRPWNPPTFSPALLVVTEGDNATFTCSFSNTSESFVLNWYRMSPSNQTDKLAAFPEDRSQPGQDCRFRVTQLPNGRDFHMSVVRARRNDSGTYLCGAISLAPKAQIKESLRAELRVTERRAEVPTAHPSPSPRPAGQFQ
notes: Two Fabs of clone 9.3 against CD28, two wild-type sPD-1 fragments; also called Bivalent anti-CD28/sPD-1 Wild type structure; bispecific protein complex A:B-C-X:D-C'-Y
